In PMC7083938, “NELL2-Robo3 complex structure reveals mechanisms of receptor activation for axon guidance” (Nature Communications, 2020):

Columns and labels:
[1] = target: T1, hRobo3 FN1-3, biotinylated (wild type) (human, UniProt Q96MS0 549-870, biotin on the Avi-tag (BirA)); assay: SPR; as a6 but with additional 10 mM EDTA in all buffers; conditions: both partners purified
T1 construct: human Robo3, FN domains 1-3, P549-L870; also called WT hRobo3 FN; Robo3FN1-3 WT; source: High Five cells (baculovirus), purified (Ni-NTA, SEC), biotinylated with BirA
T1 sequence (looked up): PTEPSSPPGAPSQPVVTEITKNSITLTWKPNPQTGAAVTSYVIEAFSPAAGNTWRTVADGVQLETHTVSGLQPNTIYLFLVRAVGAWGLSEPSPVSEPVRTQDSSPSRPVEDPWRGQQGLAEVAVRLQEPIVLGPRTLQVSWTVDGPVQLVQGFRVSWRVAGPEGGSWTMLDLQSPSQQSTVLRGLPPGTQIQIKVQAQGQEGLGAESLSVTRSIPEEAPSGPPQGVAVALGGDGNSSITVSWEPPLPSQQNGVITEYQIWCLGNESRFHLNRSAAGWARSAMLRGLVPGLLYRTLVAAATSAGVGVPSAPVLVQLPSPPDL

[2] = target: T1, hRobo3 FN1-3, biotinylated (wild type); assay: SPR; biotinylated hRobo3 FN1-3 on an SA chip, Biacore 3000; hNELL1 EGF1-3 or hNELL2 EGF1-3 as analyte; equilibrium isotherms; conditions: both partners purified
[3] = target: T1, hRobo3 FN1-3, biotinylated (wild type); assay: SPR; biotinylated hRobo3 FN1-3 on an NLC/neutravidin chip, ProteOn XPR36; hNELL2 EGF1-6 as analyte; 25 °C, 10 mM HEPES pH 7.2, 150 mM NaCl, 0.05% Tween-20, 0.1% BSA; equilibrium responses, 1:1 Langmuir; conditions: both partners purified
[4] = target: T2, hRobo3 FN1-3 displayed on S2 cells (human, UniProt Q96MS0 549-870); assay: flow cytometry on cells; biotinylated ligand at various concentrations, 30 min at 4 °C in PBS + 0.1% BSA, on Drosophila S2 cells displaying the partner (C-terminal FLAG, rat Neurexin-1 transmembrane helix); Cy5-streptavidin; gated on anti-FLAG positive cells; MFI fit to a single-site model; apparent KD; conditions: one partner purified
T2 construct: human Robo3, FN domains 1-3, P549-L870; also called Robo3FN1-3 WT (Actin 5C, C-terminal FLAG); source: Drosophila S2 cells, transiently transfected, on the cell surface; not shown: FLAG, C-terminal, kept; transmembrane helix of rat Neurexin-1, C-terminal, kept
T2 sequence (looked up): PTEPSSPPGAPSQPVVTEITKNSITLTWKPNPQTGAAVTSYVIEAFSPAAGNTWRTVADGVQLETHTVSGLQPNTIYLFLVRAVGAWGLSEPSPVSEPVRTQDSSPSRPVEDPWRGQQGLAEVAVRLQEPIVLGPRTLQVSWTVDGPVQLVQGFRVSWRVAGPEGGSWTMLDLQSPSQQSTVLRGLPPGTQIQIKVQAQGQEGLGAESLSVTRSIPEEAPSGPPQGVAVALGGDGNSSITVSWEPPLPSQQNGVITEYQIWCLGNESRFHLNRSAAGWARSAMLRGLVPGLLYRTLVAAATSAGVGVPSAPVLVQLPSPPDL

Binder | Kd [4] | other results
hNELL1 EGF1-3 (domain or fragment, human, UniProt Q92832 390-517, looked up, human NELL1, EGF domains 1-3, R390-A517; also called NELL1EGF1-3 (Polyhedrin, human); source: High Five cells (baculovirus), purified (Ni-NTA, SEC)) RGHNFCAEGPKCGENSECKNWNTKATCECKSGYISVQGDSAYCEDIDECAAKMHYCHANTVCVNLPGLYRCDCVPGYIRVDDFSCTEHDECGSGQHNCDENAICTNTVQGHSCTCKPGYVGNGTICRA |  | Kd [1]: 2710 nM; Kd [2]: 460 nM
hNELL2 EGF1-6 (His-tagged) (domain or fragment, human NELL2, EGF domains 1-6, G397-T637; also called NELL2EGF1-6 (Polyhedrin, human); source: High Five cells (baculovirus), purified (Ni-NTA, SEC)) not shown |  | Kd [3]: 579 nM
hNELL2 EGF1-6, biotinylated (wild type) (domain or fragment, biotin on the Avi-tag (BirA), human NELL2, EGF domains 1-6, G397-T637; also called WT hNELL2 EGF; NELL2EGF1-6 WT; source: High Five cells (baculovirus), purified (Ni-NTA, SEC), biotinylated with BirA) not shown | 770 nM | 
hNELL2 EGF1-6 D477A/Y478A, biotinylated (domain or fragment, biotin on the Avi-tag (BirA), human NELL2, EGF domains 1-6, G397-T637; source: High Five cells (baculovirus), purified, biotinylated with BirA (general methods)) not shown | ≥ 100000 nM | 
hNELL2 EGF1-6 D476A, biotinylated (domain or fragment, biotin on the Avi-tag (BirA), human NELL2, EGF domains 1-6, G397-T637; source: High Five cells (baculovirus), purified, biotinylated with BirA (general methods)) not shown | ~50000 nM | 
hNELL2 EGF1-6 L498A/F500A, biotinylated (domain or fragment, biotin on the Avi-tag (BirA), human NELL2, EGF domains 1-6, G397-T637; source: High Five cells (baculovirus), purified, biotinylated with BirA (general methods)) not shown | ≥ 100000 nM | 
hNELL2 EGF1-6 R452A, biotinylated (domain or fragment, biotin on the Avi-tag (BirA), human NELL2, EGF domains 1-6, G397-T637; source: High Five cells (baculovirus), purified, biotinylated with BirA (general methods)) not shown | 1100 nM | 
hNELL2 EGF1-6 R448A/Y450A, biotinylated (domain or fragment, biotin on the Avi-tag (BirA), human NELL2, EGF domains 1-6, G397-T637; source: High Five cells (baculovirus), purified, biotinylated with BirA (general methods)) not shown | 9000 nM | 
